Assay results as given in patent publication US20220396635A1 (UNIVERSIT T STUTTGART, published 2022).

B1: scDb/scFv-Fc (1-1)+2, trivalent bispecific anti-FAPxanti-CD3 (bispecific antibody)
chain 1: QVQLVQSGAEVKKPGASVKVSCKASGYTFTENIIHWVRQAPGQGLEWMGWFHPGSGSIKYNEKFKDRVTMTADTSTSTVYMELSSLRSEDTAVYYCARHGGTGRGAMDYWGQGTLVTVSSGGGGSDIQMTQSPSSLSASVGDRVTITCRASKSVSTSAYSYMHWYQQKPGKAPKLLIYLASNLESGVPSRFSGSGSGTDFTLTISSLQPEDFATYYCQHSRELPYTFGQGTKLEIKRGGGGSGGGGSQVQLVQSGAEVKKPGASVKVSCKASGYTFTENIIHWVRQAPGQGLEWMGWFHPGSGSIKYNEKFKDRVTMTADTSTSTVYMELSSLRSEDTAVYYCARHGGTGRGAMDYWGQGTLVTVGGGGSDIQMTQSPSSLSASVGDRVTITCRASKSVSTSAYSYMHWYQQKPGKAPKLLIYLASNLESGVPSRFSGSGSGTDFTLTISSLQPEDFATYYCQHSRELPYTFGQGTKLEIKRAAADKTHTCPPCPAPPVAGPSVFLFPPKPKDTLMISRTPEVTCVVVDVSHEDPEVKFNWYVDGVEVHNAKTKPREEQYNSTYRVVSVLTVLHQDWLNGKEYKCKVSNKGLPSSIEKTISKAKGQPREPQVCTLPPSRDELTKNQVSLSCAVKGFYPSDIAVEWESNGQPENNYKTTPPVLDSDGSFFLVSKLTVDKSRWQQGNVFSCSVMHEALHNHYTQKSLSLSPGK
chain 2: DIQMTQSPSSLSASVGDRVTITCRASQDIRNYLNWYQQKPGKAPKLLIYYTSRLHSGVPSRFSGSGSGTDFTFTISSLQPEDIATYYCQQGNTLPWTFGQGTKLEIKRGGGGSGGGGSGGGGSQVQLVQSGAEVKKPGSSVKVSCKASGGTFSGYTMNWVRQAPGQGLEWMGLINPYKGVSTYNGKFKDRVTITADKSTSTAYMELSSLRSEDTAVYYCARSGYYGDSDWYFDVWGQGTLVTVSSAAADKTHTCPPCPAPPVAGPSVFLFPPKPKDTLMISRTPEVTCVVVDVSHEDPEVKFNWYVDGVEVHNAKTKPREEQYNSTYRVVSVLTVLHQDWLNGKEYKCKVSNKGLPSSIEKTISKAKGQPREPQVYTLPPCRDELTKNQVSLWCLVKGFYPSDIAVEWESNGQPENNYKTTPPVLDSDGSFFLYSKLTVDKSRWQQGNVFSCSVMHEALHNHYTQKSLSLSPGK
notes: also called scDbFAPxFAP-Fc(hole)Δab + scFvhuU3-Fc(knob)Δab
B2: scDb/scFv-Fc (1-2)+1, trivalent bispecific anti-CEAxanti-CD3 (bispecific antibody)
chain 1: QVKLQQSGAELVRSGTSVKLSCTASGFNIKDSYMHWLRQGPEQGLEWIGWIDPENGDTEYAPKFQGKATFTTDTSSNTAYLQLSSLTSEDTAVYYCNEGTPTGPYYFDYWGQGTTVTVSSGGGGSDIQMTQSPSSLSASVGDRVTITCRASQDIRNYLNWYQQKPGKAPKLLIYYTSRLHSGVPSRFSGSGSGTDFTFTISSLQPEDIATYYCQQGNTLPWTFGQGTKLEIKRGGGGSGGGGSGGGGSQVQLVQSGAEVKKPGSSVKVSCKASGGTFSGYTMNWVRQAPGQGLEWMGLINPYKGVSTYNGKFKDRVTITADKSTSTAYMELSSLRSEDTAVYYCARSGYYGDSDWYFDVWGQGTLVTVSSGGGGSDIELTQSPAIMSASPGEKVTITCSASSSVSYMHWFQQKPGTSPKLWIYSTSNLASGVPARFSGSGSGTSYSLTISRMEAEDAATYYCQQRSSYPLTFGAGTKLELKRAAADKTHTCPPCPAPPVAGPSVFLFPPKPKDTLMISRTPEVTCVVVDVSHEDPEVKFNWYVDGVEVHNAKTKPREEQYNSTYRVVSVLTVLHQDWLNGKEYKCKVSNKGLPSSIEKTISKAKGQPREPQVCTLPPSRDELTKNQVSLSCAVKGFYPSDIAVEWESNGQPENNYKTTPPVLDSDGSFFLVSKLTVDKSRWQQGNVFSCSVMHEALHNHYTQKSLSLSPGK
chain 2: QVKLQQSGAELVRSGTSVKLSCTASGFNIKDSYMHWLRQGPEQGLEWIGWIDPENGDTEYAPKFQGKATFTTDTSSNTAYLQLSSLTSEDTAVYYCNEGTPTGPYYFDYWGQGTTVTVSSGGGGSGGGGSGGGGSDIELTQSPAIMSASPGEKVTITCSASSSVSYMHWFQQKPGTSPKLWIYSTSNLASGVPARFSGSGSGTSYSLTISRMEAEDAATYYCQQRSSYPLTFGAGTKLELKRAAADKTHTCPPCPAPPVAGPSVFLFPPKPKDTLMISRTPEVTCVVVDVSHEDPEVKFNWYVDGVEVHNAKTKPREEQYNSTYRVVSVLTVLHQDWLNGKEYKCKVSNKGLPSSIEKTISKAKGQPREPQVYTLPPCRDELTKNQVSLWCLVKGFYPSDIAVEWESNGQPENNYKTTPPVLDSDGSFFLYSKLTVDKSRWQQGNVFSCSVMHEALHNHYTQKSLSLSPGK
notes: also called scDbCEAxhuU3-Fc(hole)Δab + scFvCEA-Fc(knob)Δab
B3: scDb/scFv-Fc (2-1)+1, trivalent bispecific anti-FAPxanti-CD3 (bispecific antibody)
chain 1: QVQLVQSGAEVKKPGSSVKVSCKASGGTFSGYTMNWVRQAPGQGLEWMGLINPYKGVSTYNGKFKDRVTITADKSTSTAYMELSSLRSEDTAVYYCARSGYYGDSDWYFDVWGQGTLVTVSSGGGGSDIQMTQSPSSLSASVGDRVTITCRASKSVSTSAYSYMHWYQQKPGKAPKLLIYLASNLESGVPSRFSGSGSGTDFTLTISSLQPEDFATYYCQHSRELPYTFGQGTKLEIKRGGGGSGGGGSQVQLVQSGAEVKKPGASVKVSCKASGYTFTENIIHWVRQAPGQGLEWMGWFHPGSGSIKYNEKFKDRVTMTADTSTSTVYMELSSLRSEDTAVYYCARHGGTGRGAMDYWGQGTLVTVGGGGSDIQMTQSPSSLSASVGDRVTITCRASQDIRNYLNWYQQKPGKAPKLLIYYTSRLHSGVPSRFSGSGSGTDFTFTISSLQPEDIATYYCQQGNTLPWTFGQGTKLEIKRAAADKTHTCPPCPAPPVAGPSVFLFPPKPKDTLMISRTPEVTCVVVDVSHEDPEVKFNWYVDGVEVHNAKTKPREEQYNSTYRVVSVLTVLHQDWLNGKEYKCKVSNKGLPSSIEKTISKAKGQPREPQVCTLPPSRDELTKNQVSLSCAVKGFYPSDIAVEWESNGQPENNYKTTPPVLDSDGSFFLVSKLTVDKSRWQQGNVFSCSVMHEALHNHYTQKSLSLSPGK
chain 2: QVQLVQSGAEVKKPGASVKVSCKASGYTFTENIIHWVRQAPGQGLEWMGWFHPGSGSIKYNEKFKDRVTMTADTSTSTVYMELSSLRSEDTAVYYCARHGGTGRGAMDYWGQGTLVTVSSGGGGSGGGGSGGGGSDIQMTQSPSSLSASVGDRVTITCRASKSVSTSAYSYMHWYQQKPGKAPKLLIYLASNLESGVPSRFSGSGSGTDFTLTISSLQPEDFATYYCQHSRELPYTFGQGTKLEIKRAAADKTHTCPPCPAPPVAGPSVFLFPPKPKDTLMISRTPEVTCVVVDVSHEDPEVKFNWYVDGVEVHNAKTKPREEQYNSTYRVVSVLTVLHQDWLNGKEYKCKVSNKGLPSSIEKTISKAKGQPREPQVYTLPPCRDELTKNQVSLWCLVKGFYPSDIAVEWESNGQPENNYKTTPPVLDSDGSFFLYSKLTVDKSRWQQGNVFSCSVMHEALHNHYTQKSLSLSPGK
notes: also called scDbCD3xFAP-Fc(hole)Δab + scFvFAP-Fc(knob)Δab
B4: scDb/Fab-Fc (2-1)+1, trivalent bispecific anti-FAPxanti-CD3 (bispecific antibody, human IgG1, kappa)
chain: B3 chain 1
heavy: QVQLVQSGAEVKKPGASVKVSCKASGYTFTENIIHWVRQAPGQGLEWMGWFHPGSGSIKYNEKFKDRVTMTADTSTSTVYMELSSLRSEDTAVYYCARHGGTGRGAMDYWGQGTLVTVSSASTKGPSVFPLAPSSKSTSGGTAALGCLVKDYFPEPVTVSWNSGALTSGVHTFPAVLQSSGLYSLSSVVTVPSSSLGTQTYICNVNHKPSNTKVDKKVEPKSCDKTHTCPPCPAPPVAGPSVFLFPPKPKDTLMISRTPEVTCVVVDVSHEDPEVKFNWYVDGVEVHNAKTKPREEQYNSTYRVVSVLTVLHQDWLNGKEYKCKVSNKGLPSSIEKTISKAKGQPREPQVYTLPPCRDELTKNQVSLWCLVKGFYPSDIAVEWESNGQPENNYKTTPPVLDSDGSFFLYSKLTVDKSRWQQGNVFSCSVMHEALHNHYTQKSLSLSPGK
light: DIQMTQSPSSLSASVGDRVTITCRASKSVSTSAYSYMHWYQQKPGKAPKLLIYLASNLESGVPSRFSGSGSGTDFTLTISSLQPEDFATYYCQHSRELPYTFGQGTKLEIKRRTVAAPSVFIFPPSDEQLKSGTASVVCLLNNFYPREAKVQWKVDNALQSGNSQESVTEQDSKDSTYSLSSTLTLSKADYEKHKVYACEVTHQGLSSPVTKSFNRGEC
notes: also called scDbCD3xFAP-Fc(hole)Δab + VHFAP-CH1-Fc(knob)Δab + VLFAP-CLκ

Columns and labels:
[1] = molecular target: T1, FAP (UniProt Q12884 1-760, limits assumed); assay: flow cytometry, serial dilution on HT1080-FAP cells (FAP-expressing), PE anti-human Fc detection
T1 construct: whole, on cells; also called FAP on HT1080-FAP cells
Experimental: (§1) Binding of trivalent, bispecific fusion proteins to FAP-expressing (HT1080-FAP) cell lines was analyzed by flow cytometry. 2×10⁵ cells/well were incubated with a serial dilution of trivalent, bispecific antibodies for 1 h at 4° C. followed by detection using a PE-conjugated anti-human Fc antibody (Jackson ImmunoResearch Laboratories Inc).

[2] = molecular target: T2, CEA (UniProt P06731 35-685); assay: cell-based or functional assay
T2 sequence (looked up): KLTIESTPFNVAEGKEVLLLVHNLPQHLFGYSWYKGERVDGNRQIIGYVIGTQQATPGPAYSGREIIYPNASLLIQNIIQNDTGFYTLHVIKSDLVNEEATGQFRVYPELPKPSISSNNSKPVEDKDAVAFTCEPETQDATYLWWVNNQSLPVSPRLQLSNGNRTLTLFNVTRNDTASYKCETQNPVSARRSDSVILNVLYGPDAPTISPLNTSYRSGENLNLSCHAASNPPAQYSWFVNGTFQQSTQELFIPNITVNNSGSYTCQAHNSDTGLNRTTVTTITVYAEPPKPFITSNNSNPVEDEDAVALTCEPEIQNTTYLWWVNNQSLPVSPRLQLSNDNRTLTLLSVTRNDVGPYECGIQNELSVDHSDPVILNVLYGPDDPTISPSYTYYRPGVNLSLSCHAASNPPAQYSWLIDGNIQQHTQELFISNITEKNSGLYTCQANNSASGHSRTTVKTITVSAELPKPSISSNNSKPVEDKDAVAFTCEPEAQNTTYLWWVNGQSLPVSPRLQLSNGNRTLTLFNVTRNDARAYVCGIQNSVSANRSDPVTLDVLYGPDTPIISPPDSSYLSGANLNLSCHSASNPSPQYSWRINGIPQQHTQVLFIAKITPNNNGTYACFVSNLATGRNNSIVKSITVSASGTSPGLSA

[3] = molecular target: T2, CEA; assay: flow cytometry, serial dilution on LIM1215 cells (CEA-expressing), PE anti-human Fc detection
Experimental: as §1, with “CEA-expressing (LIM1215) and CD3-expressing (Jurkat)” for “FAP-expressing (HT1080-FAP)”, “Inc). […] Regarding the CEA-expressing cell line LIM1215, the trivalent, bispecific antibodies bound with EC₅₀ values in the nanomolar range (FIG. 16A) (Table 9).” for “Inc).”

[4] = molecular target: T2, CEA; assay: cell-based or functional assay; remark: listed apart in the source
[5] = molecular target: T3, CD3 (UniProt P07766 23-207); assay: flow cytometry, serial dilution on Jurkat cells (CD3-expressing), PE anti-human Fc detection
T3 construct: whole, on cells; on cells it stands in the TCR/CD3 complex; also called CD3 on Jurkat cells
Experimental: as §1, with “CEA-expressing (LIM1215) and CD3-expressing (Jurkat)” for “FAP-expressing (HT1080-FAP)”, “Inc). […] Regarding the CEA-expressing cell line LIM1215, the trivalent, bispecific antibodies bound with EC₅₀ values in the nanomolar range (FIG. 16A) (Table 9).” for “Inc).”

Row | Binder | EC50 [1] | EC50 of IL-2 release, PBMCs co-cultured with LIM1215 cells [2] | EC50 [3] | EC50 of PBMC cytotoxicity on LIM1215 cells, E:T 10:1 [4] | EC50 [5]
1 | B1 | 1 nM | – | – | – | –
2 | B2 | – | 1.4 nM | 1.6 nM | 0.5 nM | 7.7 nM
3 | B3 | 0.3 nM | – | – | – | –
4 | B4 | 0.4 nM | – | – | – | –
